Assay results: the supplement of paper PMC9233669
This sample holds only a part of the variants without activity.

Assays:
biotinyl-Trp-oxazolone = test: self-aminoacylation, catalytic enhancement (BWO) (fold over background); higher = more active; k-Seq, kA / k0A0; sequences stand for … in GGGAAUGGAUCCACAUCUACGAAUUC…UUCACUGCAGACUUGACGAAGCUG
How it was run: (§1)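 Working in 50 μL HEPES/NaCl/KCl/MgCl2/CaCl2 buffer with 5% acetonitrile at pH 6.9–7.0, mutagenized RNA pools (0.43 μM; 21-nt variable region) were reacted with 2–1250 μM of each biotinyl-aminoacyl-oxazolone for 90 minutes at room temperature. Streptavidin capture followed, with quantification by triplicate qPCR and Illumina sequencing. Catalytic enhancement is reported as median kA over the uncatalyzed rate, the low-activity peak of a bimodal Gaussian fit to the data.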

biotinyl-Phe-oxazolone = test: self-aminoacylation, catalytic enhancement (BFO) (fold over background); higher = more active; k-Seq, kA / k0A0; sequences stand for … in GGGAAUGGAUCCACAUCUACGAAUUC…UUCACUGCAGACUUGACGAAGCUG
How it was run: as §1

biotinyl-Val-oxazolone = test: self-aminoacylation, catalytic enhancement (BVO) (fold over background); higher = more active; k-Seq, kA / k0A0; sequences stand for … in GGGAAUGGAUCCACAUCUACGAAUUC…UUCACUGCAGACUUGACGAAGCUG
How it was run: as §1

biotinyl-Leu-oxazolone = test: self-aminoacylation, catalytic enhancement (BLO) (fold over background); higher = more active; k-Seq, kA / k0A0; sequences stand for … in GGGAAUGGAUCCACAUCUACGAAUUC…UUCACUGCAGACUUGACGAAGCUG
How it was run: as §1

biotinyl-Met-oxazolone = test: self-aminoacylation, catalytic enhancement (BMO) (fold over background); higher = more active; k-Seq, kA / k0A0; sequences stand for … in GGGAAUGGAUCCACAUCUACGAAUUC…UUCACUGCAGACUUGACGAAGCUG
How it was run: as §1

biotinyl-Ile-oxazolone = test: self-aminoacylation, catalytic enhancement (BIO) (fold over background); higher = more active; k-Seq, kA / k0A0; sequences stand for … in GGGAAUGGAUCCACAUCUACGAAUUC…UUCACUGCAGACUUGACGAAGCUG
How it was run: as §1

Sequence: CCACACUUCAAGCAAUCGUUC [Fam1B.1 aminoacylation ribozyme variant]
- self-aminoacylation (biotinyl-Trp-oxazolone): 0.675
- self-aminoacylation (biotinyl-Phe-oxazolone): 1.31
- self-aminoacylation (biotinyl-Val-oxazolone): 0.845
- self-aminoacylation (biotinyl-Leu-oxazolone): 0.579
- self-aminoacylation (biotinyl-Met-oxazolone): 0.57
- self-aminoacylation (biotinyl-Ile-oxazolone): 0.714

Sequence: CCACACUUCAAGCAAUCGUUG [Fam1B.1 aminoacylation ribozyme variant]
- self-aminoacylation (biotinyl-Trp-oxazolone): 1.15
- self-aminoacylation (biotinyl-Phe-oxazolone): 1.26
- self-aminoacylation (biotinyl-Val-oxazolone): 0.908
- self-aminoacylation (biotinyl-Leu-oxazolone): 0.776
- self-aminoacylation (biotinyl-Met-oxazolone): 0.877
- self-aminoacylation (biotinyl-Ile-oxazolone): 0.944

Sequence: CCACACUUCAAGCAAUCUGUC [Fam1B.1 aminoacylation ribozyme variant]
- self-aminoacylation (biotinyl-Trp-oxazolone): 0.369
- self-aminoacylation (biotinyl-Phe-oxazolone): 0.824
- self-aminoacylation (biotinyl-Val-oxazolone): 0.518
- self-aminoacylation (biotinyl-Leu-oxazolone): 0.327
- self-aminoacylation (biotinyl-Met-oxazolone): 0.34
- self-aminoacylation (biotinyl-Ile-oxazolone): 0.368

Sequence: CCACACUUCAAGCAAUUGGAC [Fam1B.1 aminoacylation ribozyme variant]
- self-aminoacylation (biotinyl-Trp-oxazolone): 0.337
- self-aminoacylation (biotinyl-Phe-oxazolone): 0.614
- self-aminoacylation (biotinyl-Val-oxazolone): 0.697
- self-aminoacylation (biotinyl-Leu-oxazolone): 0.583
- self-aminoacylation (biotinyl-Met-oxazolone): 0.664
- self-aminoacylation (biotinyl-Ile-oxazolone): 0.72

Sequence: CCACACUUCAAGCAAUUGGUC [Fam1B.1 aminoacylation ribozyme variant]
- self-aminoacylation (biotinyl-Trp-oxazolone): 0.858
- self-aminoacylation (biotinyl-Phe-oxazolone): 1.43
- self-aminoacylation (biotinyl-Val-oxazolone): 0.707
- self-aminoacylation (biotinyl-Leu-oxazolone): 0.594
- self-aminoacylation (biotinyl-Met-oxazolone): 0.625
- self-aminoacylation (biotinyl-Ile-oxazolone): 0.702

Sequence: CCACACUUCAAGCACUUGGUC [Fam1B.1 aminoacylation ribozyme variant]
- self-aminoacylation (biotinyl-Trp-oxazolone): 0.616
- self-aminoacylation (biotinyl-Phe-oxazolone): 1.03
- self-aminoacylation (biotinyl-Val-oxazolone): 0.65
- self-aminoacylation (biotinyl-Leu-oxazolone): 0.818
- self-aminoacylation (biotinyl-Met-oxazolone): 0.775
- self-aminoacylation (biotinyl-Ile-oxazolone): 0.816

Sequence: CCACACUUCAAGCAGUAGGUC [Fam1B.1 aminoacylation ribozyme variant]
- self-aminoacylation (biotinyl-Trp-oxazolone): 0.401
- self-aminoacylation (biotinyl-Phe-oxazolone): 0.807
- self-aminoacylation (biotinyl-Val-oxazolone): 0.815
- self-aminoacylation (biotinyl-Leu-oxazolone): 0.51
- self-aminoacylation (biotinyl-Met-oxazolone): 0.425
- self-aminoacylation (biotinyl-Ile-oxazolone): 0.633

Sequence: CCACACUUCAAGCAGUCGGUC [Fam1B.1 aminoacylation ribozyme variant]
- self-aminoacylation (biotinyl-Trp-oxazolone): 0.712
- self-aminoacylation (biotinyl-Phe-oxazolone): 1.1
- self-aminoacylation (biotinyl-Val-oxazolone): 0.878
- self-aminoacylation (biotinyl-Leu-oxazolone): 0.783
- self-aminoacylation (biotinyl-Met-oxazolone): 0.724
- self-aminoacylation (biotinyl-Ile-oxazolone): 0.849

Sequence: CCACACUUCAAGCAGUCGGUG [Fam1B.1 aminoacylation ribozyme variant]
- self-aminoacylation (biotinyl-Trp-oxazolone): 2.1
- self-aminoacylation (biotinyl-Phe-oxazolone): 18.4
- self-aminoacylation (biotinyl-Val-oxazolone): 2.29
- self-aminoacylation (biotinyl-Leu-oxazolone): 3.56
- self-aminoacylation (biotinyl-Met-oxazolone): 2.34
- self-aminoacylation (biotinyl-Ile-oxazolone): 2.18

Sequence: CCACACUUCAAGCAGUCUGUC [Fam1B.1 aminoacylation ribozyme variant]
- self-aminoacylation (biotinyl-Trp-oxazolone): 0.305
- self-aminoacylation (biotinyl-Phe-oxazolone): 0.562
- self-aminoacylation (biotinyl-Val-oxazolone): 0.478
- self-aminoacylation (biotinyl-Leu-oxazolone): 0.353
- self-aminoacylation (biotinyl-Met-oxazolone): 0.383
- self-aminoacylation (biotinyl-Ile-oxazolone): 0.339

Sequence: CCACACUUCAAGCAUACGGUC [Fam1B.1 aminoacylation ribozyme variant]
- self-aminoacylation (biotinyl-Trp-oxazolone): 0.453
- self-aminoacylation (biotinyl-Phe-oxazolone): 0.63
- self-aminoacylation (biotinyl-Val-oxazolone): 0.836
- self-aminoacylation (biotinyl-Leu-oxazolone): 0.501
- self-aminoacylation (biotinyl-Met-oxazolone): 0.538
- self-aminoacylation (biotinyl-Ile-oxazolone): 0.564

Sequence: CCACACUUCAAGCCAUAGGUC [Fam1B.1 aminoacylation ribozyme variant]
- self-aminoacylation (biotinyl-Trp-oxazolone): 0.633
- self-aminoacylation (biotinyl-Phe-oxazolone): 0.805
- self-aminoacylation (biotinyl-Val-oxazolone): 0.688
- self-aminoacylation (biotinyl-Leu-oxazolone): 0.632
- self-aminoacylation (biotinyl-Met-oxazolone): 0.622
- self-aminoacylation (biotinyl-Ile-oxazolone): 0.812

Sequence: CCACACUUCAAGCCAUCGGUA [Fam1B.1 aminoacylation ribozyme variant]
- self-aminoacylation (biotinyl-Trp-oxazolone): 1.05
- self-aminoacylation (biotinyl-Phe-oxazolone): 0.774
- self-aminoacylation (biotinyl-Val-oxazolone): 1.4
- self-aminoacylation (biotinyl-Leu-oxazolone): 1.88
- self-aminoacylation (biotinyl-Met-oxazolone): 1.7
- self-aminoacylation (biotinyl-Ile-oxazolone): 1.53

Sequence: CCACACUUCAAGCCAUCUGUC [Fam1B.1 aminoacylation ribozyme variant]
- self-aminoacylation (biotinyl-Trp-oxazolone): 0.498
- self-aminoacylation (biotinyl-Phe-oxazolone): 0.711
- self-aminoacylation (biotinyl-Val-oxazolone): 0.72
- self-aminoacylation (biotinyl-Leu-oxazolone): 0.401
- self-aminoacylation (biotinyl-Met-oxazolone): 0.542
- self-aminoacylation (biotinyl-Ile-oxazolone): 0.493

Sequence: CCACACUUCAAGCCGUCGGUC [Fam1B.1 aminoacylation ribozyme variant]
- self-aminoacylation (biotinyl-Trp-oxazolone): 1
- self-aminoacylation (biotinyl-Phe-oxazolone): 0.678
- self-aminoacylation (biotinyl-Val-oxazolone): 1.49
- self-aminoacylation (biotinyl-Leu-oxazolone): 1.57
- self-aminoacylation (biotinyl-Met-oxazolone): 1.47
- self-aminoacylation (biotinyl-Ile-oxazolone): 1.41

Sequence: CCACACUUCAAGCUAUAGGUC [Fam1B.1 aminoacylation ribozyme variant]
- self-aminoacylation (biotinyl-Trp-oxazolone): 0.508
- self-aminoacylation (biotinyl-Phe-oxazolone): 0.975
- self-aminoacylation (biotinyl-Val-oxazolone): 0.806
- self-aminoacylation (biotinyl-Leu-oxazolone): 0.489
- self-aminoacylation (biotinyl-Met-oxazolone): 0.513
- self-aminoacylation (biotinyl-Ile-oxazolone): 0.613

Sequence: CCACACUUCAAGCUAUCGGUA [Fam1B.1 aminoacylation ribozyme variant]
- self-aminoacylation (biotinyl-Trp-oxazolone): 1.29
- self-aminoacylation (biotinyl-Phe-oxazolone): 0.934
- self-aminoacylation (biotinyl-Val-oxazolone): 1.18
- self-aminoacylation (biotinyl-Leu-oxazolone): 1.28
- self-aminoacylation (biotinyl-Met-oxazolone): 0.992
- self-aminoacylation (biotinyl-Ile-oxazolone): 1.16

Sequence: CCACACUUCAAGUAAUCGGGC [Fam1B.1 aminoacylation ribozyme variant]
- self-aminoacylation (biotinyl-Trp-oxazolone): 1.73
- self-aminoacylation (biotinyl-Phe-oxazolone): 1.28
- self-aminoacylation (biotinyl-Val-oxazolone): 1.69
- self-aminoacylation (biotinyl-Leu-oxazolone): 1.54
- self-aminoacylation (biotinyl-Met-oxazolone): 1.64
- self-aminoacylation (biotinyl-Ile-oxazolone): 1.68

Sequence: CCACACUUCAAGUAAUCGUUC [Fam1B.1 aminoacylation ribozyme variant]
- self-aminoacylation (biotinyl-Trp-oxazolone): 0.552
- self-aminoacylation (biotinyl-Phe-oxazolone): 0.886
- self-aminoacylation (biotinyl-Val-oxazolone): 0.801
- self-aminoacylation (biotinyl-Leu-oxazolone): 0.705
- self-aminoacylation (biotinyl-Met-oxazolone): 0.613
- self-aminoacylation (biotinyl-Ile-oxazolone): 0.628

Sequence: CCACACUUCAAGUAAUGGGUC [Fam1B.1 aminoacylation ribozyme variant]
- self-aminoacylation (biotinyl-Trp-oxazolone): 0.546
- self-aminoacylation (biotinyl-Phe-oxazolone): 0.642
- self-aminoacylation (biotinyl-Val-oxazolone): 0.66
- self-aminoacylation (biotinyl-Leu-oxazolone): 0.803
- self-aminoacylation (biotinyl-Met-oxazolone): 1.04
- self-aminoacylation (biotinyl-Ile-oxazolone): 0.868

Sequence: CCACACUUCAAGUUAUCGGUC [Fam1B.1 aminoacylation ribozyme variant]
- self-aminoacylation (biotinyl-Trp-oxazolone): 1.08
- self-aminoacylation (biotinyl-Phe-oxazolone): 0.799
- self-aminoacylation (biotinyl-Val-oxazolone): 1.06
- self-aminoacylation (biotinyl-Leu-oxazolone): 1.04
- self-aminoacylation (biotinyl-Met-oxazolone): 1.01
- self-aminoacylation (biotinyl-Ile-oxazolone): 1.09

Sequence: CCACACUUCAAUCAAACGGUC [Fam1B.1 aminoacylation ribozyme variant]
- self-aminoacylation (biotinyl-Trp-oxazolone): 0.456
- self-aminoacylation (biotinyl-Phe-oxazolone): 0.747
- self-aminoacylation (biotinyl-Val-oxazolone): 0.757
- self-aminoacylation (biotinyl-Leu-oxazolone): 0.575
- self-aminoacylation (biotinyl-Met-oxazolone): 0.543
- self-aminoacylation (biotinyl-Ile-oxazolone): 0.618

Sequence: CCACACUUCAAUCAAUCGGUC [Fam1B.1 aminoacylation ribozyme variant]
- self-aminoacylation (biotinyl-Trp-oxazolone): 21.8
- self-aminoacylation (biotinyl-Phe-oxazolone): 42.7
- self-aminoacylation (biotinyl-Val-oxazolone): 1.17
- self-aminoacylation (biotinyl-Leu-oxazolone): 1.51
- self-aminoacylation (biotinyl-Met-oxazolone): 1.05
- self-aminoacylation (biotinyl-Ile-oxazolone): 1.1

Sequence: CCACACUUCAAUCAAUCGGUG [Fam1B.1 aminoacylation ribozyme variant]
- self-aminoacylation (biotinyl-Trp-oxazolone): 2.57
- self-aminoacylation (biotinyl-Phe-oxazolone): 2.64
- self-aminoacylation (biotinyl-Val-oxazolone): 1.98
- self-aminoacylation (biotinyl-Leu-oxazolone): 3.6
- self-aminoacylation (biotinyl-Met-oxazolone): 2.66
- self-aminoacylation (biotinyl-Ile-oxazolone): 2.23

Sequence: CCACACUUCAAUCAAUCGUUC [Fam1B.1 aminoacylation ribozyme variant]
- self-aminoacylation (biotinyl-Trp-oxazolone): 0.469
- self-aminoacylation (biotinyl-Phe-oxazolone): 1.04
- self-aminoacylation (biotinyl-Val-oxazolone): 0.607
- self-aminoacylation (biotinyl-Leu-oxazolone): 0.506
- self-aminoacylation (biotinyl-Met-oxazolone): 0.423
- self-aminoacylation (biotinyl-Ile-oxazolone): 0.622
